Experimental findings from article PMC2952836 are described below.

Assay [1] concerns the target human α-thrombin (human) (UniProt P00734). The experiment in a line: kinetics of thrombin inactivation.
For assay [2] the target is unchanged.

Turning to “deglycosylated plasma heparin cofactor II (from UniProt P05546 20-499) (natural protein)”, in the assay with human α-thrombin (human) [1], the K (TH,HCII), dissociation constant of ternary complex formation with heparin stood at 0.018 µM. In the assay with human α-thrombin (human) [2], this substance returned a second-order rate constant of uncatalyzed thrombin inactivation (no GAG) of 420 M⁻¹ s⁻¹.

“native plasma heparin cofactor II (from UniProt P05546 20-499) (natural protein)”: the K (TDS,HCII), dissociation constant of ternary complex formation with DS in the assay with human α-thrombin (human) [1] was determined as 0.022 µM.
